Source: doi:10.1101/2021.09.24.461649 (bioRxiv, 2021)

Biological target: the molecule itself
Assay: SEC

B1: EspC (ESX-1 secreted protein C), wild type (natural protein)
chain: MMTENLTVQPERLGVLASHHDNAAVDASSGVEAAAGLGESVAITHGPYCSQFNDTLNVYLTAHNALGSSLHTAGVDLAKSLRIAAKIYSEADEAWRKAIDGLFT
For B1, the “stoichiometry N” value was 6.
